# Reference: US10005846 (LIFEARC, dated 2018)
# T1: TG13
# T1 construct: also called Factor XIIIa
# T1 chain: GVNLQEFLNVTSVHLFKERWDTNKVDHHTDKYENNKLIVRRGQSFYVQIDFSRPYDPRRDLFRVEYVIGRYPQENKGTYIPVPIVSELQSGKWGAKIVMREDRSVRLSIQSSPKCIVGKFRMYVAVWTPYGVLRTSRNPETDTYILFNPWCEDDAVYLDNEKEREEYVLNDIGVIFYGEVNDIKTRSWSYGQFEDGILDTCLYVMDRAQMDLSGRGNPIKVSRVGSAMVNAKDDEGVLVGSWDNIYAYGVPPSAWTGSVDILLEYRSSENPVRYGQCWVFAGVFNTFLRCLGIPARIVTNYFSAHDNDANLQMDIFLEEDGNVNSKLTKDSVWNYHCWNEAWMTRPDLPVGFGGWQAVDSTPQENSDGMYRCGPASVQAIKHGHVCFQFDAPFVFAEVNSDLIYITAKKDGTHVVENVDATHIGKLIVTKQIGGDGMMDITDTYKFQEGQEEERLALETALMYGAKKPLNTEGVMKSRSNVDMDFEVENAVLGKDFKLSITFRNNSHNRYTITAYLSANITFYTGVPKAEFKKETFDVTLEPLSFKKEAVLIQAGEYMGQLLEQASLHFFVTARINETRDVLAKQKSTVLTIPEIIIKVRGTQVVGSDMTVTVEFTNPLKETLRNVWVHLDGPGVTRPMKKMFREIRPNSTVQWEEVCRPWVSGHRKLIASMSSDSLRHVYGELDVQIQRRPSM
# T2: TG3 (human, UniProt Q08188)
# T2 construct: recombinant, Zedira; also called recombinant human TG3; Epidermal Transglutaminase
# T2 sequence (enzyme, looked up): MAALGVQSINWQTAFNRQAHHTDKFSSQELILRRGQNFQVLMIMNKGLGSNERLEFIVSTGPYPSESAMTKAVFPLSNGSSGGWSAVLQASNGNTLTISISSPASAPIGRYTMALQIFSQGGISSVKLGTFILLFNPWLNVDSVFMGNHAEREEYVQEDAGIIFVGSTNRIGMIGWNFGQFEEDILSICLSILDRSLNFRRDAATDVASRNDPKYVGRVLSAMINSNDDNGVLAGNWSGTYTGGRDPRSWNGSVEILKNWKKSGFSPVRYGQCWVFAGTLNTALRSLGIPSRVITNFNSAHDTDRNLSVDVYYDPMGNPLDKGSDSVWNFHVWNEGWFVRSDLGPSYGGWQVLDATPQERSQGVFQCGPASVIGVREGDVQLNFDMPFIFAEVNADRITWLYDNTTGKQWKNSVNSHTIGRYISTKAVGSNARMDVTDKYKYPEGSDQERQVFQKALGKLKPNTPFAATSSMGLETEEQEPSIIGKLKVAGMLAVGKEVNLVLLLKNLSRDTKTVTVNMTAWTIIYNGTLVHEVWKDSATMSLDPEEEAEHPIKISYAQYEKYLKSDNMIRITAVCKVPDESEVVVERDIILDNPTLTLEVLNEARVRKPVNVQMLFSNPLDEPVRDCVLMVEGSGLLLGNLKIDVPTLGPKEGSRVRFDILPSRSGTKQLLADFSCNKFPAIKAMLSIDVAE
# T3: rat TG2 (rat, UniProt Q9WVJ6 1-686, limits assumed)
# T3 sequence: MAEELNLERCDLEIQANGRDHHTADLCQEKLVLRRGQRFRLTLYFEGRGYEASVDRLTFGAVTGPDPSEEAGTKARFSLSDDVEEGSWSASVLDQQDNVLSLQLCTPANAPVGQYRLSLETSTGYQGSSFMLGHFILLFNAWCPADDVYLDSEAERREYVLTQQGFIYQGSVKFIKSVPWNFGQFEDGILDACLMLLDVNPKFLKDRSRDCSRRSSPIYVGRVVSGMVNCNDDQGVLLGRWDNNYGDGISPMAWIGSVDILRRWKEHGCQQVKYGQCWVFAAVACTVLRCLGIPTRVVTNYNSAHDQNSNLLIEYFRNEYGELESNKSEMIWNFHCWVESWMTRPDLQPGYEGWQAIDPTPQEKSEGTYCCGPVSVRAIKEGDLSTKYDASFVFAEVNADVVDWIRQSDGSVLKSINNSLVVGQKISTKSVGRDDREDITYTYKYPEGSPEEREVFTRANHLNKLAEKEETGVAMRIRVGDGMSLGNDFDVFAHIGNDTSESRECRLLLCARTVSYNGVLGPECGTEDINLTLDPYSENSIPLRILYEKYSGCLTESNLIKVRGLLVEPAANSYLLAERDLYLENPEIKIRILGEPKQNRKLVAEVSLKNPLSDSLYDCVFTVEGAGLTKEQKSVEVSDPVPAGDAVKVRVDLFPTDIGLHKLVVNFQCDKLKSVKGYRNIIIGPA
# Key:
# [1] = biological target: T1, TG13; test: ELISA, purified IgG at 0.1 ug/ml, plates coated with 100 ng of each TG [panel B]
# Method: (§1) Conditioned medium or purified IgG were tested for reactivity to transglutaminase family members. The ability of each to bind to each transglutaminase (TG1, TG2, TG3, TG5, TG7 and Factor XIIIa; all Zedira) was determined using a plate binding assay. Microtiter plates (Costar, Cambridge, UK) were coated with recombinant TG (Zedira, Darmstadt, Germany) in 50 μl of 0.1 M bicarbonate/carbonate buffer (pH 9.6) overnight at 4° C. Plates were blocked for 2 h at 37° C. with 200 μl PBS containing 3% w/v BSA. Plates were washed three times with PBS containing 0.05% Tween 20 (washing buffer) and 100 μl of diluted conditioned medium (dilution 1:5 to 1:20) or purified anti-TG2 catalytic core mAbs was added. Plates were incubated for a further 1 h at room temperature. The washing step was repeated and anti-mouse gamma chain-horseradish peroxidase (1:5000) in PBS containing 0.05% Tween 20 (v:v) and 1% BSA (w:v) (Sigma, Poole UK) was added for 1 h. […] The reaction was stopped by adding 25 μl of 0.1 M H_2SO_4 and the absorbance at 450 nm was determined.
# [2] = biological target: T2, TG3; test: as above
# Method: as §1
# [3] = biological target: T3, rat TG2; test: cell-based or functional assay
Binder,binding result [1],binding result [2],"IC50, 3H-putrescine incorporation assay [3]","IC50 ratio, 3H-putrescine incorporation assay (DH2 on rat TG2 against AB-1 on human TG2) [3]","IC50 ratio, 3H-putrescine incorporation assay (rat TG2 against human TG2, same antibody) [3]"
"DC1 murine monoclonal antibody (antibody, V domains shown, Mouse hybridoma IgG; heavy chain amplified with primer MHCG1, kappa light chain; also called mDC001) VH: EVQLVESGGGLVKPGGSLKLSCAASGFTLSTHAMSWVRQTPEKRLEWVATISSGGRSTYYPDSVKGRFTISRDNVKNTLYLQLSSLRSEDTAVYFCARLISTYWGQGTTLTVSS VL: DITMTQSPSSIYASLGERVTITCKASQDINSYLTWFQQKPGKSPKILIYLVNRLVDGVPSRFSGSGSGQDYALTISSLEYEDMGIYYCLQYDDFPYTFGGGTKLEIK",no binding (tested: 0.1 ug/ml),no binding (tested: 0.1 ug/ml),,,
"DH2 murine monoclonal antibody (antibody, V domains shown, Mouse hybridoma IgG; heavy chain amplified with primer MHCG2B, kappa light chain; also called mDH001) VH: not shown VL: QIVLTQSPAIMSASPGEKVTMTCSASSSVSYMYWYQQKPGSSPRLLIYDTSNLASGVPVRFSGSGSGTSYSLTISRMEAEDAATFYCQQWSSSPLTFGAGTKLELK",,,0.000223 mg/ml of IgG (to inhibit 1 ng of TG2),38 fold less active than AB-1 against human TG2,~6 fold less active than against human TG2
